Results taken from article PMC13323110, “Structure and substrate recognition by the bacterial twin-arginine translocation (Tat) core complex” (Nature Microbiology, 2026).

Assays:
[1] = molecular target: N. salsuginis TatC (GFP-His removed) (Nitratifractor salsuginis); assay: cryo-EM structure; co-expressed TatBC complexes (E. coli, N. salsuginis, M. xanthus) and N. salsuginis TatAC complex, solubilised and purified in GDN
[2] = molecular target: the molecule itself; assay: crystal structure; SeMet-labelled isolated periplasmic domain; sitting drop, 21 °C, 0.2 M lithium sulphate, 0.1 M Tris pH 8.5, 10% PEG 8000, 10% PEG 1000
[3] = molecular target: T1, E. coli TatC with C-terminal Twin-Strep tag, expressed from a tatABC plasmid (Escherichia coli, UniProt P69423 1-258); assay: densitometry of Coomassie-stained SDS-PAGE of purified complexes; purified TatABC (TatA_26(His)6_TatBC) and TatBC (TatBC_(His)6) at four dilutions, bands quantified with ImageJ; conditions: both partners purified
T1 construct: TatC of Escherichia coli, PCR from E. coli genomic DNA (DSM 1116); also called TatC_(strep); not shown: Twin-Strep, C-terminal, kept
T1 sequence: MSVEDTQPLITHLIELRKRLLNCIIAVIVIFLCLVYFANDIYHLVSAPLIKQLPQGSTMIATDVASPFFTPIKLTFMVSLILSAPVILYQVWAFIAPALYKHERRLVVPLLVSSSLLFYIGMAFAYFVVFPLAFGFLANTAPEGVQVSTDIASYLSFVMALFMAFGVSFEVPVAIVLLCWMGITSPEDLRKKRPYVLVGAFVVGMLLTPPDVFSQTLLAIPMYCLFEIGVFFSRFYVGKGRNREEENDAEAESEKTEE

[4] = molecular target: the molecule itself; assay: cryo-EM structure; co-expressed TatBC complexes (E. coli, N. salsuginis, M. xanthus) and N. salsuginis TatAC complex, solubilised and purified in GDN
[5] = molecular target: T1, E. coli TatC with C-terminal Twin-Strep …; assay: cryo-EM structure; purified E. coli TatABC with an ALFA tag inserted in TatA or TatB, labelled with an anti-ALFA nanobody; 2D class averages and a 6.4 Å map; conditions: both partners purified
[6] = molecular target: N. salsuginis TatBC complex (Nitratifractor salsuginis); assay: cryo-EM structure; 50 μl N. salsuginis TatBC (A280nm = 8.0) mixed with 50 μl CueO peptide (1 mg/ml), 12 h at 4 °C, in GDN
[7] = molecular target: T2, E. coli TatC of the His-tagged TatBC complex (TatBC_(His)6) (Escherichia coli), P69423; assay: cryo-EM structure; co-expressed TatBC complexes (E. coli, N. salsuginis, M. xanthus) and N. salsuginis TatAC complex, solubilised and purified in GDN; conditions: remark: other sources report otherwise
T2 chain: T1 sequence

[8] = molecular target: T3, E. coli TatBC complex purified by a Twin-Strep tag on TatC (sample of the TatBC-MdoD structure) (Escherichia coli, UniProt P69425 1-171; P69423 1-258); assay: cryo-EM structure; complex assembled in vitro: Ulp1-cut His6-SUMO-MdoD or -CueO mixed with purified E. coli TatBC or TatABC complex overnight at 4 °C, SEC in 50 mM Tris pH 8.0, 200 mM NaCl, 1 mM EDTA, 0.02% GDN; excess substrate; conditions: both partners purified
T3 construct: TatB of Escherichia coli, as m1; TatC of Escherichia coli, as m5; No TatA density was found; source: E. coli, overexpressed TatABC purified solely by the TatC Twin-Strep tag in GDN; only very low levels of TatA in the purified material; copies: 3 + 3
T3 sequence 1: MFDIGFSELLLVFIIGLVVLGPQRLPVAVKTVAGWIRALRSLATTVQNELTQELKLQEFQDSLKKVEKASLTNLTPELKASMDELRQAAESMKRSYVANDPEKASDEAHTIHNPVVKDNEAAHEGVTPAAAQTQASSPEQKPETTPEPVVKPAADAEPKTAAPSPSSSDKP
T3 sequence 2: T1 sequence

[9] = molecular target: the molecule itself; assay: as above

With “N. salsuginis TatC (GFP-His removed) (natural protein)” the stoichiometry N [1] was 3.

B1: M. xanthus TatC periplasmic domain (residues 127-303) (domain or fragment, Myxococcus xanthus, UniProt Q2PHA2 127-303, looked up)
chain: SMFTFLLNEEETLALEQRLDTARLRADDALRFLRLGEAEEAGRIAKETSTQLRAEGQGQAPAPEVAPAASVEMTGRLDGLGRLLDAASVGYGAQSRGVLRQAVEKRVEAVTAYEKKDFAAAAAAMDGSASLLAGIAPTRTEELAGLWRLEKELATAHAAHEAARWTRPMLSMHEQLS
modifications: selenomethionine-labelled
notes: periplasmic domain of TatC of Myxococcus xanthus, residues 127-303; also called M. xanthus insert; source: E. coli B834 (DE3), pET15b, SelenoMethionine media, purified (Ni-NTA, TEV, SEC)
With B1 the “stoichiometry N” value [2] was 3.

B2: E. coli TatB (natural protein, Escherichia coli)
chain: T3 sequence 1
notes: TatB of Escherichia coli, PCR from E. coli genomic DNA (DSM 1116); residues 1-63 modelled in the TatBC structure; source: E. coli MC4100 ΔtatABCD ΔtatE, overexpressed from a plasmid with TatC (and TatA), purified in GDN as part of the complex
B2 was tested, and the “ratio of TatB to TatC in the TatABC complex relative to the TatBC complex” value [3] was 0.78 and the binding result [4] was “binds”.

B3: E. coli TatB with an inserted ALFA-His tag (natural protein, Escherichia coli, UniProt P69425 1-171, looked up)
chain: T3 sequence 1
notes: TatB of Escherichia coli; also called TatB_(ALFA)
For B3, the “stoichiometry N” value [5] was 2 TatB per core complex.

MQRRDFLKYSVALGVASALPLWSRAVFA [E. coli CueO signal peptide (residues 1-28)] showed a stoichiometry N (signal peptide per TatB and TatC) [6] of 1.

B4: E. coli TatC of the His-tagged TatBC complex (TatBC_(His)6), P69423 1-258 (natural protein)
chain: T1 sequence
B4 showed a stoichiometry N [7] of 3.

B5: E. coli TatA with an inserted ALFA-His tag (natural protein, Escherichia coli, UniProt P69428 1-89, looked up)
chain: MGGISIWQLLIIAVIVVLLFGTKKLGSIGSDLGASIKGFKKAMSDDEPKQDKTSQDADFTAKTIADKQADTNQEQAKTEDAKRHDKEQV
notes: TatA of Escherichia coli; also called TatA_(ALFA); TatA_(ALFA,His); not shown: ALFA, internal (in the cytoplasmic part of TatA), kept
With B5 the “stoichiometry N” value [5] was 1 TatA per core complex.

B6: E. coli MdoD, full length with its Tat signal peptide (natural protein, Escherichia coli, UniProt P40120 1-551, looked up)
chain: MDRRRFIKGSMAMAAVCGTSGIASLFSQAAFAADSDIADGQTQRFDFSILQSMAHDLAQTAWRGAPRPLPDTLATMTPQAYNSIQYDAEKSLWHNVENRQLDAQFFHMGMGFRRRVRMFSVDPATHLAREIHFRPELFKYNDAGVDTKQLEGQSDLGFAGFRVFKAPELARRDVVSFLGASYFRAVDDTYQYGLSARGLAIDTYTDSKEEFPDFTAFWFDTVKPGATTFTVYALLDSASITGAYKFTIHCEKSQVIMDVENHLYARKDIKQLGIAPMTSMFSCGTNERRMCDTIHPQIHDSDRLSMWRGNGEWICRPLNNPQKLQFNAYTDNNPKGFGLLQLDRDFSHYQDIMGWYNKRPSLWVEPRNKWGKGTIGLMEIPTTGETLDNIVCFWQPEKAVKAGDEFAFQYRLYWSAQPPVHCPLARVMATRTGMGGFSEGWAPGEHYPEKWARRFAVDFVGGDLKAAAPKGIEPVITLSSGEAKQIEILYIEPIDGYRIQFDWYPTSDSTDPVDMRMYLRCQGDAISETWLYQYFPPAPDKRQYVDDRVMS
notes: MdoD of Escherichia coli, precursor with its 32-residue Tat signal peptide; source: E. coli BL21 (DE3) ΔtatABCD ΔtatE, pET28a with N-terminal His6-SUMO, purified (His tag column), cut with Ulp1; not shown: His6, N-terminal, cleaved; SUMO, N-terminal, cleaved
With B6 the “stoichiometry N” value [8] was 3 MdoD per (TatBC)3 complex and the “stoichiometry N” value [9] was 2.

B7: M. xanthus TatC (GFP-His removed) (natural protein, Myxococcus xanthus)
chain: MSLADHLTELRSRLMRCTIAVLILGTISLVFAKPIFGLLMQPVLDALPPENRSLIYTSGIEELNVLMKVGVYCGIFLTTPVILMQIWGFVSPGLYPEERRFAAPFVAFGSIAFLLGAAFCYFAVLPSMFTFLLNEEETLALEQRLDTARLRADDALRFLRLGEAEEAGRIAKETSTQLRAEGQGQAPAPEVAPAASVEMTGRLDGLGRLLDAASVGYGAQSRGVLRQAVEKRVEAVTAYEKKDFAAAAAAMDGSASLLAGIAPTRTEELAGLWRLEKELATAHAAHEAARWTRPMLSMHEQLSLVLLLILAFGIIFELPLVMALLGVVGVVKSSWLFRYQRHAFVVCLIAAAIITPTGDVVNLSLMAGPMLLCYELGVLLVWMVERRRARNSAETGITPAS
notes: TatC of Myxococcus xanthus (ATCC 19368), codon-optimised synthetic gene; has a folded periplasmic insert domain
B7 was tested, and the “stoichiometry N” value [4] was 3.
